According to paper PMC3994028:

Molecular target: non-muscle myosin IIB (NM IIB) (rat (endogenous in hippocampal neurons of Sprague-Dawley rats and in PC12)) (UniProt Q9JLT0)
Assay: proximity ligation; Duolink in situ PLA on fixed, permeabilised cultured hippocampal neurons (growth cones); primary antibodies against βPIX (or kalirin) and NM IIB, or βPIX and GIT; with or without 50 µM BBS for 15 or 30 min

UniProt Q9JLT0, sequence (Q9JLT0 whole entry): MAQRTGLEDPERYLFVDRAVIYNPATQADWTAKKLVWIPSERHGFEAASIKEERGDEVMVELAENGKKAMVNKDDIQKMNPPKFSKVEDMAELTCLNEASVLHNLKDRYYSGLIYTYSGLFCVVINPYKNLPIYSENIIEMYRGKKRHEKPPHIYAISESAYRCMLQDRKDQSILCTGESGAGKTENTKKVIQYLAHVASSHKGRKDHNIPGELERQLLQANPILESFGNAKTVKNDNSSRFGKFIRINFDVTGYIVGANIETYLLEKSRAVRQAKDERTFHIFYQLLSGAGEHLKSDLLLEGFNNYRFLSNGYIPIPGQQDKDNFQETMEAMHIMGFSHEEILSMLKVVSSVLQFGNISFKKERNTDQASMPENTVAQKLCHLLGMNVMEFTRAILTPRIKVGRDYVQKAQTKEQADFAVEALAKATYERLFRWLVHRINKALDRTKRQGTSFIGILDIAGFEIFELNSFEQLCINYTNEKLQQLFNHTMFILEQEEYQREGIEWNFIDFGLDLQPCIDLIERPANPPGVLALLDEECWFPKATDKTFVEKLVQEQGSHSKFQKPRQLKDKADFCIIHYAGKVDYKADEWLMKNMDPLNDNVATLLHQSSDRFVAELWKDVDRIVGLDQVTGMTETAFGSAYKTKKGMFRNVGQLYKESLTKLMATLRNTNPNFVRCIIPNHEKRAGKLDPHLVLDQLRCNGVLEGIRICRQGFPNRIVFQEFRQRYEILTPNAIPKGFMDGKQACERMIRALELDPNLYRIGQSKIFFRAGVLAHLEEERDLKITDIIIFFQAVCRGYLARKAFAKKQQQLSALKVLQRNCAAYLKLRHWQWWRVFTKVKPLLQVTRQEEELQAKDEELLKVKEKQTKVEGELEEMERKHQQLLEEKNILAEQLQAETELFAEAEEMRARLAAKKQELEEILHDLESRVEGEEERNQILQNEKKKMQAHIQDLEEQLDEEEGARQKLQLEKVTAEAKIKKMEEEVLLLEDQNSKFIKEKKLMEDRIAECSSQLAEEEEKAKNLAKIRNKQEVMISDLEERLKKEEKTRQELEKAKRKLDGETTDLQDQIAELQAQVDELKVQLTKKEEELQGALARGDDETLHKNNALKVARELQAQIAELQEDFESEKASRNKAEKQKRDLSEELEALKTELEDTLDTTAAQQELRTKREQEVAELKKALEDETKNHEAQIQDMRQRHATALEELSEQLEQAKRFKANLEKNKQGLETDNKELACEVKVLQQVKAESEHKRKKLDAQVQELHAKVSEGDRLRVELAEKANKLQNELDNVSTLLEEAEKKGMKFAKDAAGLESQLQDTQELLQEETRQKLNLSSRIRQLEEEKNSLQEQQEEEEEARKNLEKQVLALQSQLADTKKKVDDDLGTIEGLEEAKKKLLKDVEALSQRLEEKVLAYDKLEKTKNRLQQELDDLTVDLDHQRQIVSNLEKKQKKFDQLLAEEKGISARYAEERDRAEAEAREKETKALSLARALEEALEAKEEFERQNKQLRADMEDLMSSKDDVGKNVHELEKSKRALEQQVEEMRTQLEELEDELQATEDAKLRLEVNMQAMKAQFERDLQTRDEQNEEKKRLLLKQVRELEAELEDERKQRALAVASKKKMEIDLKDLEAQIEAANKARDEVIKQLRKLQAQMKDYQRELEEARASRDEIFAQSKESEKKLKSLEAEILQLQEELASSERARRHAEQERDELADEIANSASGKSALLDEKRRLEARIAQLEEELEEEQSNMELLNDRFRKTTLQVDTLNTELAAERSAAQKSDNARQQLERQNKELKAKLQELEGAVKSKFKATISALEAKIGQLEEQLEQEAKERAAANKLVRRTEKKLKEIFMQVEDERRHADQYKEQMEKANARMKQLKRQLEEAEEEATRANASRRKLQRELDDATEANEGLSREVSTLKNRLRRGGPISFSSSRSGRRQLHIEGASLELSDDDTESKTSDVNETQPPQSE

- PLA fluorescence intensity in the actin-positive area 30 min after BBS, percent of untreated growth cones (% of untreated): 51
Substance: βPIX (endogenous, hippocampal neurons) (from UniProt O55043 1-646) (natural protein)
